Results as given in US20200197440A1 (LENTIGEN TECHNOLOGY, published 2020).

Assays:
[1] = target: T1, CD38-His peptide (Thermo Fisher Scientific) (UniProt P28907 43-300, limits assumed); experiment: flow cytometry of LV-transduced primary T cells stained with CD38-His, then anti-His PE
T1 construct: Bought staining reagent, detected with anti-His-PE; also called CD38-His reagent; CD38-His tagged peptide; not shown: His tag

[2] = target: CD38 on CD38-positive tumor lines RPMI-8226 and MM1.S (UniProt P28907 1-300, limits assumed); experiment: cell-based or functional assay

surface expression level, % CAR T+ (CD38-His staining) [1] [%]	Binder	tumor killing of RPMI-8226 at E:T ratio of 1:5 (so in the source) [2] [% tumor killing]
> 75	CAR construct LTG2098 (hScFv aCD38 CD8 TM 4-1BB CD3 zeta) (other, Chimeric antigen receptor on transduced human primary T cells) QVQLQQSGPGLVKPSQTLSLTCVISGDSVSSNSAAWNWIRQSPSRGLEWLGRTYYRSKWHNDYAVSVESRIIVNPDTSKNQFSLQLNSVTPEDTAVYYCARDPGYFYGLDVWGQGTMVTVSSGGGGSGGGGSGGGGSNFMLTQPHSVSESPGKTVTIPCTRSSGTIADYYVQWYQQRPDSSPIIVIYDDNQRPSGVPDRFSGSIDSSSNSASLTISGLKTEDEAAYYCQSYDSTNHWVFGGGTKLTVLGAAATTTPAPRPPTPAPTIASQPLSLRPEACRPAAGGAVHTRGLDFACDIYIWAPLAGTCGVLLLSLVITLYCKRGRKKLLYIFKQPFMRPVQTTQEEDGCSCRFPEEEEGGCELRVKFSRSADAPAYQQGQNQLYNELNLGRREEYDVLDKRRGRDPEMGGKPRRKNPQEGLYNELQKDKMAEAYSEIGMKGERRRGKGHDGLYQGLSTATKDTYDALHMQALPPR	< 40
> 65	CAR construct LTG2099 (hScFv aCD38 CD8 TM 4-1BB CD3 zeta) (other, Chimeric antigen receptor on transduced human primary T cells) QVTLKESGPVLVKPTETLTLTCTFSGFSLSTSGVGVAWIRQPPGKDLEWLALIYWDDDKRYSPSLESRLTITKDTSKNQVALTMSDMDPVDTATYYCARGDYWGRLDYWGQGTLVTVSSGGGGSGGGGSGGGGSDIQLTQSPSSLSASIGDRVTITCQASEDINNYLNWYQQKPGKAPKLLIYDASNLETGVPSRFSGSGSGTDFTFTINSLQPEDIATYYCQQFDNMPLTFGGGTKLEIKAAATTTPAPRPPTPAPTIASQPLSLRPEACRPAAGGAVHTRGLDFACDIYIWAPLAGTCGVLLLSLVITLYCKRGRKKLLYIFKQPFMRPVQTTQEEDGCSCRFPEEEEGGCELRVKFSRSADAPAYQQGQNQLYNELNLGRREEYDVLDKRRGRDPEMGGKPRRKNPQEGLYNELQKDKMAEAYSEIGMKGERRRGKGHDGLYQGLSTATKDTYDALHMQALPPR	< 10
> 45	CAR construct LTG2090 (hScFv aCD38 CD8 TM 4-1BB CD3 zeta) (other, Chimeric antigen receptor on transduced human primary T cells) EVQLVESGGGSVQPGGSLRLSCAASEFTFSSYWMHWVRQAPGKGLEWVAVISYDGAKKYYADSVKGRFTISRDNSKNTLYLQMNSLRAEDTAVYYCARDDGSGGFDYWGQGTLVTVSSGGGGSGGGGSGGGGSDIVMTHTPLSLSVTPGQPASISCKSSQSLLHSDGKTYLYWYLQKPGQPPQLLIYEVSNRFSGVPDRYSGSGSGTDFTLKISRVEAEDVGVYYCMQSIQLPLTFGGGTKLEIKAAATTTPAPRPPTPAPTIASQPLSLRPEACRPAAGGAVHTRGLDFACDIYIWAPLAGTCGVLLLSLVITLYCKRGRKKLLYIFKQPFMRPVQTTQEEDGCSCRFPEEEEGGCELRVKFSRSADAPAYQQGQNQLYNELNLGRREEYDVLDKRRGRDPEMGGKPRRKNPQEGLYNELQKDKMAEAYSEIGMKGERRRGKGHDGLYQGLSTATKDTYDALHMQALPPR	< 70
